{"source": "patent US20140065163A1", "about": "(MERCK SERONO S A, published 2014)", "binders": {"B1": {"name": "humanized parental anti-GM-CSF 4K21 VH3-07.1AL+VK2-A3.2 hIgG1K antibody (MSB0010439) (antibody, V domains shown)", "VH": "EVQLVESGGGLVQPGGSLRLSCAASGFAFSAYDMSWVRQAPGKRLELVAYISSGGSSFYYPDTVKGRFTISRDNAKNSLYLQMNSLRAEDTAVYYCTRHLGFDYWGQGTLVTVSS", "VL": "DIVMTQSPLSLPVTPGEPASISCRSSQSLVNSNGNTYLHWYLQKPGQSPQLLIYKVSNRFSGVPDRFSGSGSGTDFTLKISRVEAEDVGVYYCSQSTHVPPTFGQGTKVEIK", "notes": "Human IgG1 kappa; also called humanized parental 4K21 hVH hVL; parental 4K21"}}, "key": {"[1]": {"biological_target": "T1, macaca GM-CSF (Macaca mulatta (identical in Macaca …, UniProt Q0MUT8 18-144 (Chlorocebus aethiops entry), limits assumed))", "T1 chain": "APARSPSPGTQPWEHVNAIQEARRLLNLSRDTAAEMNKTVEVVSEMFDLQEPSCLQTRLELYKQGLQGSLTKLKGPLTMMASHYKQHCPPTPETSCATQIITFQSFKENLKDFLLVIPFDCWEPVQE", "assay": "cell-based or functional assay"}, "[2]": {"biological_target": "T2, human GM-CSF T117 (human, UniProt P04141 18-144)", "assay": "cell-based or functional assay"}, "[3]": {"biological_target": "T3, human GM-CSF I117 (human, UniProt P04141 18-144)", "assay": "cell-based or functional assay"}, "[4]": {"biological_target": "T1, macaca GM-CSF", "assay": "cell-based or functional assay"}, "[5]": {"biological_target": "T2, human GM-CSF T117", "assay": "cell-based or functional assay", "remark": "listed apart in the source"}, "[6]": {"biological_target": "T3, human GM-CSF I117", "assay": "cell-based or functional assay", "remark": "listed apart in the source"}, "[7]": {"biological_target": "T1, macaca GM-CSF", "assay": "cell-based or functional assay"}, "[8]": {"biological_target": "T2, human GM-CSF T117", "assay": "cell-based or functional assay", "remark": "listed apart in the source"}, "[9]": {"biological_target": "T3, human GM-CSF I117", "assay": "cell-based or functional assay", "remark": "listed apart in the source"}, "[10]": {"biological_target": "T1, macaca GM-CSF", "assay": "cell-based or functional assay"}, "[11]": {"biological_target": "T2, human GM-CSF T117", "assay": "cell-based or functional assay", "remark": "listed apart in the source"}, "[12]": {"biological_target": "T3, human GM-CSF I117", "assay": "cell-based or functional assay", "remark": "listed apart in the source"}, "[13]": {"biological_target": "T1, macaca GM-CSF", "assay": "KinExA, affinity in solution", "method": "(§1) The 4K21 and reference antibodies were incubated at concentration below the expected Kd with serial dilutions of human GM-CSF I117 or T117, or macaca GM-CSF up to equilibrium. The remaining free antibody was measured in a Kinetic exclusion assay with the KinExA® instrument. Kd was calculated by fitting the curve of the signal obtained versus the GM-CSF concentrations. The average of two experiments using different IgG concentrations was calculated."}, "[14]": {"biological_target": "T2, human GM-CSF T117", "assay": "KinExA, affinity in solution", "method": "as §1"}, "[15]": {"biological_target": "T3, human GM-CSF I117", "assay": "KinExA, affinity in solution", "method": "as §1"}, "[16]": {"biological_target": "T3, human GM-CSF I117", "assay": "TF-1 proliferation assay and KinExA"}}, "note": "Read-outs that look alike come from different tables or passages of the source."}
{"binder": "B1", "values": [{"measurement": "Fold macaca/human I117 (IC50, TF-1 proliferation)", "setting": "[1]", "result": 5.7, "unit": "fold"}, {"measurement": "IC50, inhibition of GM-CSF induced TF-1 proliferation (32 pM GM-CSF)", "setting": "[1]", "result": 557, "unit": "pM"}, {"measurement": "Fold human T117/I117 (IC50, TF-1 proliferation)", "setting": "[2]", "result": 9.7, "unit": "fold"}, {"measurement": "IC50, inhibition of GM-CSF induced TF-1 proliferation (32 pM GM-CSF)", "setting": "[2]", "result": 947, "unit": "pM"}, {"measurement": "IC50, inhibition of GM-CSF induced TF-1 proliferation (32 pM GM-CSF)", "setting": "[3]", "result": 98, "unit": "pM"}, {"measurement": "Fold improvement of 4K21 H93Y alone on macaca (IC50, TF-1 proliferation)", "setting": "[4]", "result": 0.1, "unit": "fold"}, {"measurement": "Fold improvement of humanized parental 4K21 on macaca (IC50, TF-1 proliferation)", "setting": "[4]", "result": 1, "unit": "fold"}, {"measurement": "Fold macaca/human I117 (IC50, TF-1 proliferation)", "setting": "[4]", "result": 6.6, "unit": "fold"}, {"measurement": "IC50, inhibition of GM-CSF induced TF-1 proliferation (32 pM GM-CSF)", "setting": "[4]", "result": 793, "unit": "pM"}, {"measurement": "Fold human T117/I117 (IC50, TF-1 proliferation)", "setting": "[5]", "result": 11.6, "unit": "fold"}, {"measurement": "Fold improvement of 4K21 H93Y alone on T117 (IC50, TF-1 proliferation)", "setting": "[5]", "result": 0.1, "unit": "fold"}, {"measurement": "Fold improvement of humanized parental 4K21 on T117 (IC50, TF-1 proliferation)", "setting": "[5]", "result": 1, "unit": "fold"}, {"measurement": "IC50, inhibition of GM-CSF induced TF-1 proliferation (32 pM GM-CSF)", "setting": "[5]", "result": 1400, "unit": "pM"}, {"measurement": "Fold improvement of 4K21 H93Y alone on I117 (IC50, TF-1 proliferation)", "setting": "[6]", "result": 0.2, "unit": "fold"}, {"measurement": "Fold improvement of humanized parental 4K21 on I117 (IC50, TF-1 proliferation)", "setting": "[6]", "result": 1, "unit": "fold"}, {"measurement": "IC50, inhibition of GM-CSF induced TF-1 proliferation (32 pM GM-CSF)", "setting": "[6]", "result": 121, "unit": "pM"}, {"measurement": "IC50, inhibition of GM-CSF induced IL-8 secretion in U937 cells (65 pM GM-CSF)", "setting": "[7]", "result": 1120, "unit": "pM"}, {"measurement": "IC50, inhibition of GM-CSF induced IL-8 secretion in U937 cells (65 pM GM-CSF)", "setting": "[8]", "result": 930, "unit": "pM"}, {"measurement": "IC50, inhibition of GM-CSF induced IL-8 secretion in U937 cells (65 pM GM-CSF)", "setting": "[9]", "result": 170, "unit": "pM"}, {"measurement": "neutralizing the orthologs of cynomolgus and rhesus monkeys (TF-1 proliferation assay)", "setting": "[10]", "result": "< 10", "unit": "fold"}, {"measurement": "Emax (%), inhibition of CD11b upregulation on neutrophils after GM-CSF stimulation", "setting": "[11]", "result": 68, "unit": "%"}, {"measurement": "IC50, inhibition of CD11b upregulation on neutrophils after GM-CSF stimulation", "setting": "[11]", "result": 31.6, "unit": "nM"}, {"measurement": "Emax (%), inhibition of CD11b upregulation on neutrophils after GM-CSF stimulation", "setting": "[12]", "result": 65, "unit": "%"}, {"measurement": "IC50, inhibition of CD11b upregulation on neutrophils after GM-CSF stimulation", "setting": "[12]", "result": 3.06, "unit": "nM"}, {"measurement": "Kd", "setting": "[13]", "result": 0.063, "unit": "nM"}, {"measurement": "Kd", "setting": "[14]", "result": 0.164, "unit": "nM"}, {"measurement": "Kd", "setting": "[15]", "result": 0.021, "unit": "nM"}, {"measurement": "fold preference for GM-CSF I117 versus T117", "setting": "[16]", "result": "> 10", "unit": "fold"}]}
